Reference: PMC5861439 (Nucleic Acids Research, 2017)

Legend:
Rtt109 = conditions: ref [13–14],[21–22]; cited from earlier work
Asf1–H3:H4 complex = assay: NMR 13C-HMQC; format: binding, Asf1 Saccharomyces cerevisiae; histones Xenopus laevis; conditions: Rtt109 added to Asf1–H3:H4–Vps75_2; 50 mM sodium citrate pH 6.5, 150 mM NaCl, 5 mM BME, 850 MHz, 298 K
[1] = test system: 15N-labeled H3 in the H3:H4 complex; assay: NMR 15N-HSQC CSPs of 15N-labeled histone H3 in the H3:H4 complex; format: binding, Xenopus laevis; conditions: Rtt109 added to Asf1–H3:H4 (15N-labeled H3); 50 mM sodium citrate pH 6.2, 150 mM NaCl, 5 mM BME, 600 MHz, 298 K

Row | Substance | acetyltransferase activity alone / activation of Rtt109 by chaperones (in words) (Rtt109) | Asf1 CSPs upon addition of Rtt109 in the presence of Vps75 (in words) (Asf1–H3:H4 complex) | competition with the H3 tail for Asf1 (in words) [1]
1 | Vps75_2: Vps75 homodimer, histone chaperone (Saccharomyces cerevisiae) | strongly activated | – | –
2 | Asf1: Saccharomyces cerevisiae Asf1 (2–169), histone-specific chaperone | strongly activated | – | –
3 | Rtt109: full-length Saccharomyces cerevisiae Rtt109, fungal histone acetyltransferase | very low acetyltransferase activity | large Asf1 CSPs | can out-compete the H3 tail for the same interaction surface on Asf1
